The values that follow come from FireProtDB (doi:10.1021/bi026827i).

Chain of Cytochrome c isoform 1 K10Q|K11Q, P00044 K10Q K11Q (P00044 whole entry K10Q/K11Q, canonical isoform): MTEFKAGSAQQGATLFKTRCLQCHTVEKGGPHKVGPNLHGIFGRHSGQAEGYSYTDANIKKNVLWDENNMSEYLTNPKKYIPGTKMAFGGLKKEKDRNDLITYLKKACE
Chain of Cytochrome c isoform 1 K33Q, P00044 (P00044 whole entry K33Q, canonical isoform): as the sequence (P00044 whole entry K10Q/K11Q, canonical isoform) above, with Q10K, Q11K, K33Q counted along it
Chain of Cytochrome c isoform 1 K60Q|K61Q, P00044 K60Q K61Q (P00044 whole entry K60Q/K61Q, canonical isoform): as the sequence (P00044 whole entry K10Q/K11Q, canonical isoform) above, with Q10K, Q11K, K60Q, K61Q counted along it
Chain of Cytochrome c isoform 1 K17Q, P00044 (P00044 whole entry K17Q, canonical isoform): as the sequence (P00044 whole entry K10Q/K11Q, canonical isoform) above, with Q10K, Q11K, K17Q counted along it
Chain of Cytochrome c isoform 1 K28Q, P00044 (P00044 whole entry K28Q, canonical isoform): as the sequence (P00044 whole entry K10Q/K11Q, canonical isoform) above, with Q10K, Q11K, K28Q counted along it

For this data set the following is noted: Saccharomyces cerevisiae (strain ATCC 204508 / S288c); pH 7; 25 °C; GdnHCl; CD; Tris 20 mM; NaCl 40 mM; structure 1YCC.
In the case of “Cytochrome c isoform 1 K10Q|K11Q, P00044 K10Q K11Q”, the denaturant m value was 3.06 kcal/mol/M, the “denaturant midpoint (higher = more stable)” value was found to be 1.05 M and the unfolding free energy was found to be 3.2 kcal/mol.
The corresponding values for Cytochrome c isoform 1 K28Q, P00044 are 3.2 kcal/mol/M, 0.94 M and 2.96 kcal/mol.
Take Cytochrome c isoform 1 K33Q, P00044: the denaturant m value worked out at 3.7 kcal/mol/M, the “denaturant midpoint (higher = more stable)” value came to 1.09 M and the unfolding free energy came out at 4.04 kcal/mol.
The corresponding values for “Cytochrome c isoform 1 K60Q|K61Q, P00044 K60Q K61Q” are 3.06 kcal/mol/M, 0.99 M and 3.04 kcal/mol.
The corresponding values for Cytochrome c isoform 1 K17Q, P00044 are 5.33 kcal/mol/M, 0.64 M and 3.37 kcal/mol.
